Assay results from patent publication US20240374729A1 (published 2024).

Experiments:
[1] = target: T1, NY-ESO-1 peptide on HLA-A*02:01 (human); experiment: cytokine release
T1 peptide: SLLMWITQC

[2] = target: T2, PRAME peptide on HLA-A*02:01 (human); experiment: killing
T2 peptide: SLLQHLIGL

[3] = target: T3, PRAME peptide on HLA-A*02:02 (human); experiment: cytokine release
T3 peptide: SLLQHLIGL

[4] = target: T4, PRAME peptide on HLA-A*02:04 (human); experiment: cytokine release
T4 peptide: SLLQHLIGL

[5] = target: T5, PRAME peptide on HLA-A*02:09 (human); experiment: cytokine release
T5 peptide: SLLQHLIGL

B1: NY-ESO-1/LAGE-1 specific TCR of SEQ ID NOs 41 and 42 (TCR, V domains shown)
Valpha: QKEVEQNSGPLSVPEGAIASLNCTYSDRGSQSFFWYRQYSGKSPELIMFIYSNGDKEDGRFTAQLNKASQYVSLLIRDSQPSDSATYLCAADDKIIFGKGTRLHILP
Vbeta: DAGVIQSPRHEVTEMGQEVTLRCKPISGHDYLFWYRQTMMRGLELLIYFNNNVPIDDSGMPEDRFSAKMPNASFSTLKIQPSEPRDSAVYFCASSRGGSGYTFGSGTRLTVV
B1: recognises [1].

B2: T23.8-2.1-027-004 (TCR, V domains shown)
Valpha: GQQLNQSPQSMFIQEGEDVSMNCTSSSIFNTWLWYKQDPGEGPVLLIALYKAGELTSNGRLTAQFGITRKDSFLNISASIPSDVGIYFCAGLADYGGSQGNLIFGKGTKLSVKP
Vbeta: DSGVTQTPKHLITATGQRVTLRCSPRSGDLSVYWYQQSLDQGLQFLIQYYNGEERAKGNILERFSAQQFPDLHSELNLSSLELGDSALYFCASSVWASGGYEQYFGPGTRLTVT
B2: recognises [2]; recognises [3]; recognises [4]. B2: recognises [5].
